According to the supplement of paper PMC6379048:

Tests used:
Assay in all cases: Kd (EC50 corrected by depletion factor)
ICT1 = ICT1 (UniProt Q14197)
How it was run: (§1)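 Free RNA oligos (0 nM to 30 μM) competed for 1 h at 4°C in HEK293-FT lysate (2.5 mg protein/well) before a 30 min, 4°C pulldown with the same oligos on NHS-Sepharose beads. Bound proteins were quantified by label-free LC-MS/MS and normalised to the control. Kd was found by multiplying EC50, from a four-parameter log-logistic fit, by a protein-dependent depletion factor.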

C1QBP = target: T1, C1QBP (UniProt Q07021)
T1 sequence: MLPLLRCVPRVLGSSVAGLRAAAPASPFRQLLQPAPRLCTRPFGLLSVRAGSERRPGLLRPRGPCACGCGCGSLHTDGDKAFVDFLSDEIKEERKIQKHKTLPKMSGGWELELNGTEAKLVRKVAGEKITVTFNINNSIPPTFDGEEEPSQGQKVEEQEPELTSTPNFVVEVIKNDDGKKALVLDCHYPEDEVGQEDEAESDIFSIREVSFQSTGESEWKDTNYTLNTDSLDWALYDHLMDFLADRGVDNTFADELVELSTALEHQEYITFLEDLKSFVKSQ
How it was run: as §1

GPALPP1 = target: T2, GPALPP1 (UniProt Q8IXQ4)
T2 sequence: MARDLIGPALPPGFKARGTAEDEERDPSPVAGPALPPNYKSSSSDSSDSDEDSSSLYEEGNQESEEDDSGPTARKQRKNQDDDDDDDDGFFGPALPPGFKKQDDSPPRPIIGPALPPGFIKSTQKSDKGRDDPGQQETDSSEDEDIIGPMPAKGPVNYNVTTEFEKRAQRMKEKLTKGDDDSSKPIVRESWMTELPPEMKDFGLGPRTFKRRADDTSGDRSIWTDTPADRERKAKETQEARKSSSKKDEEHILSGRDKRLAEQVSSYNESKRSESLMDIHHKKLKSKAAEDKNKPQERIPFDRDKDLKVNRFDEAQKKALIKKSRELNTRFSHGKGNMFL
How it was run: as §1

MCM4 = target: T3, MCM4 (UniProt P33991)
T3 sequence: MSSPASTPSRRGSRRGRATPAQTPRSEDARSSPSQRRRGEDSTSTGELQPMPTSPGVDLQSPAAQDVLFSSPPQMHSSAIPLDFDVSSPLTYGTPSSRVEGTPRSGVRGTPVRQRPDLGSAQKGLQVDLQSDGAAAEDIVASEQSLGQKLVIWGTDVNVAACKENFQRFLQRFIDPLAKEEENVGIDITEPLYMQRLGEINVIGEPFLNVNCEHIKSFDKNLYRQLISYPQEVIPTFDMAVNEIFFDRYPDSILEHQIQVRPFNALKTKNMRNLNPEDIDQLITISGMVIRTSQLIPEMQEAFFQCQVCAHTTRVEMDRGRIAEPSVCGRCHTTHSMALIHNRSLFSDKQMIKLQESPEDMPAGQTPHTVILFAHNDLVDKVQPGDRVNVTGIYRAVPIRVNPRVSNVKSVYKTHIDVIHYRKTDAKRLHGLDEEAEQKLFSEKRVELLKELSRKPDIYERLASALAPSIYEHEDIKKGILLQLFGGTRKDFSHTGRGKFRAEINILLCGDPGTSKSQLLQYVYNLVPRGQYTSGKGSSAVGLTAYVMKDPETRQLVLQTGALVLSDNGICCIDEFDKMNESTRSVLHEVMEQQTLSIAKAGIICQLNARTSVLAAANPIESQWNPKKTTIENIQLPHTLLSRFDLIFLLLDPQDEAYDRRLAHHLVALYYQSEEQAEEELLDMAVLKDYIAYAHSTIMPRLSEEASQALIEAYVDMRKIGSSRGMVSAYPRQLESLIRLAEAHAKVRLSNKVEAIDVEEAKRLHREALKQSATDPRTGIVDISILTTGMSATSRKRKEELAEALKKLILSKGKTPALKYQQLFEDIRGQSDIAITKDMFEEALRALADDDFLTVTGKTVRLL
How it was run: as §1

CSTF3 = target: T4, CSTF3 (UniProt Q12996)
T4 sequence: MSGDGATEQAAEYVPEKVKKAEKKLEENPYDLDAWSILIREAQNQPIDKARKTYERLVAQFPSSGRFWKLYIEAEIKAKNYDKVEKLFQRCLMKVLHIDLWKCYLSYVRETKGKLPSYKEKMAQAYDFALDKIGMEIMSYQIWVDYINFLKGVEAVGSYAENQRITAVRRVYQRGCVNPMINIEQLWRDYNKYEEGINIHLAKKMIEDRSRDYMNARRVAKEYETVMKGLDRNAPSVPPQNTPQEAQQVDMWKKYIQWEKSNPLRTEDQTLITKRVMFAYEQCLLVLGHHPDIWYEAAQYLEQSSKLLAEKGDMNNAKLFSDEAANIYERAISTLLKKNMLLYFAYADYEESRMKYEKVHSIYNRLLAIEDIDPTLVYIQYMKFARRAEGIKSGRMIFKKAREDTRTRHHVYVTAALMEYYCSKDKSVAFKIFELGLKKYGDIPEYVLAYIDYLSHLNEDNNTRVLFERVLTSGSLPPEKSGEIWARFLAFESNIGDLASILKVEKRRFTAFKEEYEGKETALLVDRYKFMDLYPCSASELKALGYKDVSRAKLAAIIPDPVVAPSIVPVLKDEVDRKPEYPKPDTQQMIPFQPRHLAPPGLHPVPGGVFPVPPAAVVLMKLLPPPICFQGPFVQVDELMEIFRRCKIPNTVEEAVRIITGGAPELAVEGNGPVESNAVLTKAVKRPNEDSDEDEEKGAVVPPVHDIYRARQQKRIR
How it was run: as §1

TARDBP = TARDBP (UniProt Q13148)
How it was run: as §1

Chain of TARDBP (Q13148 whole entry): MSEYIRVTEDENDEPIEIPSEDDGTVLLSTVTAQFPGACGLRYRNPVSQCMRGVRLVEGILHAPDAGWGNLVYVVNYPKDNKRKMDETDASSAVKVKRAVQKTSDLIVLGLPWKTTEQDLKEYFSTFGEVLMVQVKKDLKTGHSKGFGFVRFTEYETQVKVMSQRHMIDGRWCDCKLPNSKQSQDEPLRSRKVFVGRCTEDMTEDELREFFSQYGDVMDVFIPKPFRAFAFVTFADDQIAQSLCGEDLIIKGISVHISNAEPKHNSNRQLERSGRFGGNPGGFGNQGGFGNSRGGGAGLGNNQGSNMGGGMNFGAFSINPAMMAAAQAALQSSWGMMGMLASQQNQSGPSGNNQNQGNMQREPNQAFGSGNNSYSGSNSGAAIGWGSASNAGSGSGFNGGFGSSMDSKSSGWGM

CUGUCCU was tested, and the Kd (ICT1) was 48.1 nM.

For AAUAAA, the Kd (C1QBP) was 477 nM, the Kd (GPALPP1) was 33 nM and the Kd (MCM4) was 25.8 nM.

For UAUUUAU, the Kd (CSTF3) was 352 nM and the Kd (TARDBP) was 1320 nM.
